The target of series [1] is T1, Zea mays asparagine synthetase Zm AsnS4 (SEQ ID NO: 51, encoded by SEQ ID NO: 50) (Zea mays, UniProt B5U8J9).
T1 construct: 588 aa
T1 sequence (B5U8J9 1-588): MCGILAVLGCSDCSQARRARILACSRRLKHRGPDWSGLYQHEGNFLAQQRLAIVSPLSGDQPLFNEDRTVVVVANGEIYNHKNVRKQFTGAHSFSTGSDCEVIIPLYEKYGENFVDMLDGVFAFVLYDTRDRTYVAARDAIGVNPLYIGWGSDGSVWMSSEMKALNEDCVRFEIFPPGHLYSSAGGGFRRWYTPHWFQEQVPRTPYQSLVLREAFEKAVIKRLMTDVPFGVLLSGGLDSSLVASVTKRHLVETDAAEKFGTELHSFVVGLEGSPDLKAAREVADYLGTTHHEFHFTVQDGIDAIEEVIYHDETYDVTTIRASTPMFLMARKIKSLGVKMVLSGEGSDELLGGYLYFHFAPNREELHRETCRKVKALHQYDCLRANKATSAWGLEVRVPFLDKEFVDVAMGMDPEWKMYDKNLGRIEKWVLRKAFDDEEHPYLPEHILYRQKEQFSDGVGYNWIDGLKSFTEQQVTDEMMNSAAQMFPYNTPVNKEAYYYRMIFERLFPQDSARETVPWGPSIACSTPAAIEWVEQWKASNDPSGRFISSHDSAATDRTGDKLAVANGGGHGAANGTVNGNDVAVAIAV
The experiment in a line: Kinetics of recombinant his-tagged, refolded maize asparagine synthetase AsnS4 (substrate titration, asparagine by HPLC). The class given is biochemical. The method, then:
The effect of expression of asparagine synthetase genes on asparagine synthetase activity was measured in transgenic events of pMON79706 and pMON92870. Frozen, ground leaf tissue was aliquoted (200-400 mg) into wells from a precooled 96 deep-well plate. Protein was extracted in Buffer A (100 mM Hepes-OH, pH 8.0, 0.1 mM EDTA, 10 mM MgCl2, 2 mM aspartate, 0.5 mM DTT, 67 mM mercaptoethanol, 20% (v/v) glycerol, 0.1 mM ATP, 1% (v/v) P9599 (Sigma Company), 25 mM KCl). A small amount of sand was added to each well. Buffer A was then added to the leaf tissue in the wells at a ratio of 4:1 (buffer:tissue). The plates were then agitated in a paint shaker for 2 min. to mix the sample and then centrifuged at 5000×g for 10 minutes. The supernatant (100-200 μL) was desalted in a 96-well macro spin plate (SNS S025L, The Nest Group Inc., Southboro, Mass.) equilibrated in buffer A. The supernatant was then either assayed immediately or frozen in liquid nitrogen and maintained at −80° C. until used. To assay asparagine synthetase activity, desalted protein extracts (10-50 μL) were added to wells containing 100 μL assay solution (100 mM Hepes, pH 8.0, 10 mM MgCl2, 2 mM aspartate, 5 mM DTT, 10 mM ATP, 1 mM amino(oxy)acetic acid (aspartate amino transferase inhibitor), 1 mM aspartic semialdehyde (asparaginase inhibitor). To start the reaction, glutamine (final concentration of 2 mM for standard assay) was added to the solution, which was then mixed. The assay mixture was then incubated for 1 to 2 hours. The reaction was then stopped by the addition of an equal volume of 20% (w/v) trichloroacetic acid. The mixture was then filtered to remove precipitate and asparagine was measured by HPLC. Sample size was increased from 0.5 μL to 2.5 μL for HPLC, excitation wavelength was reduced from 340 nm to 235 nm, and fluorimeter gain was increased from 10 to 13. […]

Series [2] has as its target T2, Zea mays asparagine synthetase Zm AsnS2 (SEQ ID NO: 4, encoded by SEQ ID NO: 3) (Zea mays, UniProt B5U8J7).
T2 construct: 606 aa
T2 sequence (B5U8J7 1-606): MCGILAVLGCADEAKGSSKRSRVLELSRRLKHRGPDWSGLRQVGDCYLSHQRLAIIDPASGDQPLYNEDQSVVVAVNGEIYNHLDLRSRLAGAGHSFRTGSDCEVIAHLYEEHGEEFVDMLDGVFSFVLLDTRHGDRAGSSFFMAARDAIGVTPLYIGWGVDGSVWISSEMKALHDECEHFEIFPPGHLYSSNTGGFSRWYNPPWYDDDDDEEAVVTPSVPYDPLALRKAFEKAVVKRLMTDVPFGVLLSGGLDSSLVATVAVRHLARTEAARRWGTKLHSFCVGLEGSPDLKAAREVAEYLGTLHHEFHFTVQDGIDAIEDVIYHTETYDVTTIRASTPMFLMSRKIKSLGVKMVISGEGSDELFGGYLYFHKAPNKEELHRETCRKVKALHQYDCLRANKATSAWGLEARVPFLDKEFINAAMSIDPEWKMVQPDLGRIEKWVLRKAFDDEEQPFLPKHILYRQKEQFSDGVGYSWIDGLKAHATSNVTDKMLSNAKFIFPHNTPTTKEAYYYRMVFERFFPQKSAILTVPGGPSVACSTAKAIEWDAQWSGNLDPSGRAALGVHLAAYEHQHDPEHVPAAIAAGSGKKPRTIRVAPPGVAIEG
The series is described as follows: Kinetics of recombinant his-tagged, refolded maize asparagine synthetase AsnS2 (substrate titration, asparagine by HPLC). Type of series: biochemical. The following applies: AsnS2 versus the other maize AsnS enzymes. The procedure: The effect of expression of asparagine synthetase genes on asparagine synthetase activity was measured in transgenic events of pMON79706 and pMON92870. Frozen, ground leaf tissue was aliquoted (200-400 mg) into wells from a precooled 96 deep-well plate. Protein was extracted in Buffer A (100 mM Hepes-OH, pH 8.0, 0.1 mM EDTA, 10 mM MgCl2, 2 mM aspartate, 0.5 mM DTT, 67 mM mercaptoethanol, 20% (v/v) glycerol, 0.1 mM ATP, 1% (v/v) P9599 (Sigma Company), 25 mM KCl). A small amount of sand was added to each well. Buffer A was then added to the leaf tissue in the wells at a ratio of 4:1 (buffer:tissue). The plates were then agitated in a paint shaker for 2 min. to mix the sample and then centrifuged at 5000×g for 10 minutes. The supernatant (100-200 μL) was desalted in a 96-well macro spin plate (SNS S025L, The Nest Group Inc., Southboro, Mass.) equilibrated in buffer A. The supernatant was then either assayed immediately or frozen in liquid nitrogen and maintained at −80° C. until used. […] The mixture was then filtered to remove precipitate and asparagine was measured by HPLC. […]

Substrate in series [3]: Nc1ncnc2c1ncn2[C@@H]1O[C@H](COP(=O)(O)OP(=O)(O)OP(=O)(O)O)[C@@H](O)[C@H]1O
The experiment in a line: Kinetics of recombinant his-tagged, refolded maize asparagine synthetase AsnS1 (substrate titration, asparagine by HPLC). The class given is biochemical, Zea mays. The following applies: other: Zm AsnS1, 100 mM Hepes, pH 8.0, 10 mM MgCl2.

Substrate in series [4]: NC(=O)CC[C@H](N)C(=O)O
The description is as above. The class given is biochemical, Zea mays. To be noted: other: Zm AsnS1, 100 mM Hepes, pH 8.0, 10 mM MgCl2.

Substrate in series [5]: N[C@@H](CC(=O)O)C(=O)O
Described as above. The class given is biochemical, Zea mays. To be noted: other: Zm AsnS1, 100 mM Hepes, pH 8.0, 10 mM MgCl2.

Substrate in series [6]: Nc1ncnc2c1ncn2[C@@H]1O[C@H](COP(=O)(O)OP(=O)(O)OP(=O)(O)O)[C@@H](O)[C@H]1O
The series is described as follows: Kinetics of recombinant his-tagged, refolded maize asparagine synthetase AsnS2 (substrate titration, asparagine by HPLC). The class given is biochemical, Zea mays. The following applies: other: Zm AsnS2, 100 mM Hepes, pH 8.0, 10 mM MgCl2.

Substrate in series [7]: NC(=O)CC[C@H](N)C(=O)O
The description is as above. The class given is biochemical, Zea mays. The following applies: other: Zm AsnS2, 100 mM Hepes, pH 8.0, 10 mM MgCl2.

Substrate in series [8]: N[C@@H](CC(=O)O)C(=O)O
The series is described as above. The class given is biochemical, Zea mays. The following applies: other: Zm AsnS2, 100 mM Hepes, pH 8.0, 10 mM MgCl2.

Substrate in series [9]: Nc1ncnc2c1ncn2[C@@H]1O[C@H](COP(=O)(O)OP(=O)(O)OP(=O)(O)O)[C@@H](O)[C@H]1O
The experiment in a line: Kinetics of recombinant his-tagged, refolded maize asparagine synthetase AsnS3 (substrate titration, asparagine by HPLC). The class given is biochemical, Zea mays. The following applies: other: Zm AsnS3, 100 mM Hepes, pH 8.0, 10 mM MgCl2.

Substrate in series [10]: NC(=O)CC[C@H](N)C(=O)O
Described as above. Type of series: biochemical, Zea mays. The following applies: other: Zm AsnS3, 100 mM Hepes, pH 8.0, 10 mM MgCl2.

Substrate in series [11]: N[C@@H](CC(=O)O)C(=O)O
The series is described as above. The class given is biochemical, Zea mays. To be noted: other: Zm AsnS3, 100 mM Hepes, pH 8.0, 10 mM MgCl2.

Read-outs that look alike come from different tables or passages of the source.

Consider `Nc1ncnc2c1ncn2[C@@H]1O[C@H](COP(=O)(O)OP(=O)(O)OP(=O)(O)O)[C@@H](O)[C@H]1O` [ATP], for which, in [1] (read-out: Km(ATP), 100 mM Hepes, pH 8.0, 10 mM MgCl2), the Km (as a rule, the substrate concentration at which the rate is half of its maximum) stood at 128 µM.

For the molecule `NC(=O)CC[C@H](N)C(=O)O` [Gln, glutamine], the Km in [1] (100 mM Hepes, pH 8.0, 10 mM MgCl2, read-out: Km(Gln)) worked out at 233 µM. For the same molecule, the “Km (Gln) for AsnS2 compared with the other enzymes” value in [2] is “several fold lower than the other enzymes”.

B1: Zea mays asparagine synthetase Zm AsnS1 (SEQ ID NO: 2, encoded by SEQ ID NO: 1) (Zea mays) (protein)
chain: MICDKCSLVRSFFVGRPRDITSLYKKAGSCRTMCGILAVLGVAEVSLAKRSRIIELSRRLRHRGPDWSGLHCHEDCYLAHQRLAIIDPTSGDQPLYNEDKTVVVTVNGEIYNHEELKAKLKTHEFQTGSDCEVIAHLYEEYGEEFVDMLDGMFSFVLLDTRDKSFIAARDAIGICPLYMGWGLDGSVWFSSEMKALSDDCERFITFPPGHLYSSKTGGLRRWYNPPWFSETVPSTPYNALFLREMFEKAVIKRLMTDVPFGVLLSGGLDSSLVASVASRHLNETKVDRQWGNKLHTFCIGLKGSPDLKAAREVADYLSTVHHEFHFTVQEGIDALEEVIYHIETYDVTTIRASTPMFLMSRKIKSLGVKMVISGEGSDEIFGGYLYFHKAPNKKEFHEETCRKIKALHLYDCLRANKATSAWGVEARVPFLDKSFISVAMDIDPEWKMIKRDLGRIEKWVIRNAFDDDERPYLPKHILYRQKEQFSDGVGYSWIDGLKDHASQHVSDSMMMNAGFVYPENTPTTKEGYYYRMIFEKFFPKPAARSTVPGGPSVACSTAKAVEWDASWSKNLDPSGRAALGVHDAAYEDTAGKTPASADPVSDKGLRPAIGESLGTPVASATAV
B1: the Km in series [3] is 110 µM; in [4], 543 µM; in [5], 980 µM.

B2: Zea mays asparagine synthetase Zm AsnS2 (SEQ ID NO: 4, encoded by SEQ ID NO: 3) (Zea mays) (protein)
chain: MCGILAVLGCADEAKGSSKRSRVLELSRRLKHRGPDWSGLRQVGDCYLSHQRLAIIDPASGDQPLYNEDQSVVVAVNGEIYNHLDLRSRLAGAGHSFRTGSDCEVIAHLYEEHGEEFVDMLDGVFSFVLLDTRHGDRAGSSFFMAARDAIGVTPLYIGWGVDGSVWISSEMKALHDECEHFEIFPPGHLYSSNTGGFSRWYNPPWYDDDDDEEAVVTPSVPYDPLALRKAFEKAVVKRLMTDVPFGVLLSGGLDSSLVATVAVRHLARTEAARRWGTKLHSFCVGLEGSPDLKAAREVAEYLGTLHHEFHFTVQDGIDAIEDVIYHTETYDVTTIRASTPMFLMSRKIKSLGVKMVISGEGSDELFGGYLYFHKAPNKEELHRETCRKVKALHQYDCLRANKATSAWGLEARVPFLDKEFINAAMSIDPEWKMVQPDLGRIEKWVLRKAFDDEEQPFLPKHILYRQKEQFSDGVGYSWIDGLKAHATSNVTDKMLSNAKFIFPHNTPTTKEAYYYRMVFERFFPQKSAILTVPGGPSVACSTAKAIEWDAQWSGNLDPSGRAALGVHLAAYEHQHDPEHVPAAIAAGSGKKPRTIRVAPPGVAIEG
notes: 606 aa
On to B2, for which the results for the Michaelis constant (Km) in [6], in series [7] and in series [8] were 125 µM, 110 µM and 910 µM, respectively.

B3: Zea mays asparagine synthetase Zm AsnS3 (SEQ ID NO: 6, encoded by SEQ ID NO: 5) (Zea mays) (protein)
chain: MCGILAVLGCSDWSQAKRARILACSRRLKHRGPDWSGLYQHEGNFLAQQRLAVVSPLSGDQPLFNEDRTVVVVANGEIYNHKNVRKQFTGTHNFSTGSDCEVIMPLYEKYGENFVDMLDGVFAFVLYDTRDRTYVAARDAIGVNPLYIGWGSDGSVWIASEMKALNEDCVRFEIFPPGHLYSSAGGGFRRWYTPHWFQEQVPRTPYQPLVLREAFEKAVIKRLMTDVPFGVLLSGGLDSSLVASVTKRHLVETEAAEKFGTELHSFVVGLEGSPDLKAAREVADYLGTIHHEFHFTVQDGIDAIEEVIYHDETYDVTTIRASTPMFLMARKIKSLGVKMVLSGEGSDELLGGYLYFHFAPNKEEFHRETCRKVKALHQYDCLRANKATSAWGLEVRVPFLDKEFINVAMGMDPEWKMYDKNLGRIEKWVMRKAFDDDEHPYLPKHILYRQKEQFSDGVGYNWIDGLKSFTEQQVTDEMMNNAAQMFPYNTPVNKEAYYYRMIFERLFPQDSARETVPWGPSIACSTPAAIEWVEQWKASNDPSGRFISSHDSAATDHTGGKPAVANGGGHGAANGTVNGKDVAVAIAV
notes: 588 aa
As to B3, the figures for the Michaelis-Menten constant (Km) in series [9], in series [10] and in [11] were 97 µM, 423 µM and 1200 µM, respectively.

Values taken from US8357833B2, “Corn plants and seed enhanced for asparagine and protein” (priority 2007, dated 2013).
